Data taken from PMC3098718.
“And” between values parts separate entries of the source, which are not always exact repeats. Equal values may be shown once. Read-outs that look alike come from different tables or passages of the source.

What was measured:
[1] = biological target: FLAG::NOS-3 (S644E, T648E), phospho-mimetic (C. elegans); experiment: pull-down
[2] = biological target: FLAG::NOS-3 (S644E, T648E), phospho-mimetic (C. elegans); experiment: pull-down; remark: listed apart in the source

fold reduction of FBF-1 binding compared to wild-type NOS-3 [1]: 14 fold | fold reduction of FBF-1 binding compared to wild-type NOS-3 [2]: 17 fold and > 20 fold
B1: FBF-1 (natural protein)
chain: MDQSKMRYTNQFRKTPQKPTSTEVGNHHTPAHSPMAQHETSMWNFNSLNPYFSMLNMNDGMNYARHQQNHIVTSRPPTPLTDLMSLRSFQSFPNVFMPVSRSRTSSFIQSDTDSSRLEPDDFSQNVRYCSTEIDRNNSSSKNDHLKYSRPALSRNSRSFTRSNNVLPTWSLDSNGEMRSRLSLSEVLDSGDLMKFAVDKTGCQFLEKAVKGSLTSYQKFQLFEQVIGRKDDFLKLSTNIFGNYFVQEIIGMSLTTYDDDNIKRQEKLKNFISSQMTDMCLDKFACRVIQSSLQNMDLSLACKLVQALPRDARLIAICVDQNANHVIQKVVAVIPLKNWEFIVDFVATPEHLRQICFDKYGCRVVQTIIEKLTADSINVDLTSAAQHLRERALQRLMTSVTNRCQELATNEYANYIIQHIVSNDDLAVYRECIIEKCLMRNLLSLSQEKFASHVVEKAFLHAPMELLAEMMDEIFDGYMPHPGTGKDALDIMMFHQFGNYVVQCMLTICCDAVSGRRQTKEGSYDHANSFQVWLKKLHSRVTKERHRLSRFSSGKKMIETLAHLRSTHPIYGLQSSGHESFKTDCFSTASEHDGLELEKNGIEEGNLRLMRTFSP
modifications: S^35 labeled methionine
